Assay [1] has as its target T1, LRRK2 RocCOR domain construct (human, UniProt Q5S007 1334-1840).
T1 construct: A second construct (residues 1293-1840, N-terminal His6-MBP) was used in certain screening experiments; not shown: N-terminal Twin-Strep-tag; C-terminal His10-tag
T1 sequence: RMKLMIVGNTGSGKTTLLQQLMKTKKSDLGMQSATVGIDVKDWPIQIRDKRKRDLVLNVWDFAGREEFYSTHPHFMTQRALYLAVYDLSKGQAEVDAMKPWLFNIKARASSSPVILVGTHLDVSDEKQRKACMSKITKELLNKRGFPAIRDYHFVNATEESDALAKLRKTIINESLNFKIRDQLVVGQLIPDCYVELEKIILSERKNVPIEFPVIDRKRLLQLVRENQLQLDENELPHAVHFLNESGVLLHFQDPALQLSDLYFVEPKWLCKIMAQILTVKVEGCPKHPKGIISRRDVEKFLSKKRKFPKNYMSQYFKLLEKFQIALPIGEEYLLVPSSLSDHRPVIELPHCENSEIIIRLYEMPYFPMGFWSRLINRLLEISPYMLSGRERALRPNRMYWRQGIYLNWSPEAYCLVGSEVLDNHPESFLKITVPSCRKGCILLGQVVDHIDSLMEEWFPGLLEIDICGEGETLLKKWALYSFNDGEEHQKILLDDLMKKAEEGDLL
As to the kind of experiment: ELISA, antigen coated on the plate, purified Nb detected via its EPEA tag. The source says:
(§1) We recombinantly expressed and purified the RocCOR, Roc, COR-B and kinase-WD40 (K-WD40) domain constructs of LRRK2 (FIG. 7). Subsequently, we performed an ELISA in which all these domain constructs were coated in parallel next to each other in the same ELISA plate, and where we subsequently detected binding of the 42 purified Nbs. […] To enrich in Nbs directed against the Roc domain we specifically included a selection step with either Roc-GTPγS or Roc-GDP.

For assay [2], the target named is T2, LRRK2 COR-B construct (C-terminal part of the COR domain), His6-MBP tagged (human, UniProt Q5S007 1672-1840).
T2 construct: also called (MBP-)COR-B; not shown: N-terminal His6-MBP-tag of pDEST-566
Described as above.
Excerpt: as §1

The target of assay [3] is T3, LRRK2 kinase-WD40 domain construct (human, UniProt Q5S007 1876-2527).
T3 construct: also called K-WD40; not shown: N-terminal His-tag (pFastBac)
T3 sequence: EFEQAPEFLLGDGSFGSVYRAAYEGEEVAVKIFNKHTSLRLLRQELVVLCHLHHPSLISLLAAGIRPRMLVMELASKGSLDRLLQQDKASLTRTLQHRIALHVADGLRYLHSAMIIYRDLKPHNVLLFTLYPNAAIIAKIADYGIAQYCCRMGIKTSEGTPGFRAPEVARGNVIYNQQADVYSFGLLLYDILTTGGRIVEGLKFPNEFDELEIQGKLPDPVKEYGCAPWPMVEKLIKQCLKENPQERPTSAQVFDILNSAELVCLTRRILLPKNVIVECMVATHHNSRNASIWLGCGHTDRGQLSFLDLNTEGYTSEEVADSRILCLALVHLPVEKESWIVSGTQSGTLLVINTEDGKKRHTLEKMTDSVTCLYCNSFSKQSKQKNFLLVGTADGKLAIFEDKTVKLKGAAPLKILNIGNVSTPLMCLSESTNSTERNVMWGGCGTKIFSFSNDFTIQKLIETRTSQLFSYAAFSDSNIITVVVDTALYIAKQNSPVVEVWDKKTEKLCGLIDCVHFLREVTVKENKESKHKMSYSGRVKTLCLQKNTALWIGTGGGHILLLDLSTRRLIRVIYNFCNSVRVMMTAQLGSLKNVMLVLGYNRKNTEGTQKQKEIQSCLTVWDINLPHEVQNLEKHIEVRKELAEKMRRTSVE
The assay is described as above.
Excerpt: as §1

Assay [4] concerns the target T1, LRRK2 RocCOR domain construct. As to the kind of experiment: ELISA, purified Nb on coated domain constructs.
Excerpt: as §1
(In an ELISA, binding on a coated surface is turned into a signal by an enzyme label.)

For assay [5], the target named is T4, LRRK2 Roc domain construct (human, UniProt Q5S007 1329-1520).
T4 construct: not shown: N-terminal His6-tag of pET-28a
T4 sequence: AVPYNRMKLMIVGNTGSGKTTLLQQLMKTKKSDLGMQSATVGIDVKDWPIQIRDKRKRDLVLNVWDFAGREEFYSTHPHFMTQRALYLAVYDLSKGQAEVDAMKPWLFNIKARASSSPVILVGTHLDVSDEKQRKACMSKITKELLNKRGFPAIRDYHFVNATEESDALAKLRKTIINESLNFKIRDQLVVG
As to the kind of experiment: ELISA, purified Nb on coated domain constructs.
Excerpt: as §1

In assay [6] the target is T2, LRRK2 COR-B construct (C-terminal part …). In words: ELISA, purified Nb on coated domain constructs.
Excerpt: as §1

Assay [7] has as its target T3, LRRK2 kinase-WD40 domain construct. As to the kind of experiment: ELISA, purified Nb on coated domain constructs.
Excerpt: as §1

Assay [8] addresses T5, Full-length human Leucine-rich repeat kinase 2 (LRRK2), N-terminal Strep/Flag (SF) tagged (human, UniProt Q5S007 1-2527).
T5 construct: Purified from HEK293T cells in presence of GDP or GTPγS; also called FL LRRK2; FL-LRRK2
As to the kind of experiment: MST; LRRK2 titrated to m-TAMRA-labelled Nb, 500 µM GDP. The method, then:
Microscale thermophoresis (MST) experiments were performed for determining equilibrium binding affinities (KD) of Nbs binding to FL-LRRK2. Therefore, Nb were site-specifically labelled at their C-terminus with m-TAMRA, using Sortase-mediated peptide exchange. The Nbs were recloned into a pHEN29 vector which is subsequently used to express and purify the Nbs with a C-terminal LPETGG-His₆-EPEA tag. Exchange of the latter peptide with an m-TAMRA-labeled GGGYK peptide (GenicBio, Shanghai, China) was performed using Sortase, and unlabeled Nb and unincorporated peptide were removed using a Ni-NTA and SEC purification step, respectively. […] After incubation at 4° C. for 30 mins, samples were loaded in capillaries and measurements were performed at 25° C. using 50-70% LED power and 80% laser intensity (laser on-time: 30 s, laser off-time: 5 s). All experiments were performed in triplicate.

Assay [9] concerns the target T5, Full-length human Leucine-rich repeat …. As to the kind of experiment: BLI; Nb on LRRK2 trapped on streptavidin sensor via biotinylated Nb40; steady-state fit. On the procedure:
To determine the binding affinity (dissociation constant KD) of the ten Nbs for LRRK2, two methods were used in parallel: microscale thermophoresis (MST) and bio-layer interferometry (BLI). For the MST experiment, we site-specifically labeled the ten Nbs with a m-TAM RA fluorophore at its C-terminus, using sortase-mediated coupling, and then titrated increasing amounts of full-length LRRK2 to these Nbs (FIGS. 13A-13E).
Biolayer interferometry (BLI) measurements were performed using an Octet Red96 (Forte Bio, Inc.) system in a buffer containing 50 mM HEPES pH 8.0, 150 mM NaCl, 10 mM MgCl₂, 5% glycerol, 0.1% BSA, 0.05% Tween, at 25° C. and with shaking speed 1000 rpm. […] The biotinylated Nbs were first loaded on pre-equilibrated SA biosensors at a concentration of 5 μg/mL. This Nb-loaded sensor was then used to trap FL-LRRK2 from a 50 nM LRRK2 solution. […] All experiments were performed in triplicate.
Background: In BLI a coated tip is dipped into the sample, and binding shifts an interference pattern.

Assay [10] has as its target T4, LRRK2 Roc domain construct. In words: ELISA, antigen coated on the plate, purified Nb detected via its EPEA tag.
Excerpt: as §1

T5 sequence (Q5S007 other isoform, or with tags, fused parts or gaps limits assumed): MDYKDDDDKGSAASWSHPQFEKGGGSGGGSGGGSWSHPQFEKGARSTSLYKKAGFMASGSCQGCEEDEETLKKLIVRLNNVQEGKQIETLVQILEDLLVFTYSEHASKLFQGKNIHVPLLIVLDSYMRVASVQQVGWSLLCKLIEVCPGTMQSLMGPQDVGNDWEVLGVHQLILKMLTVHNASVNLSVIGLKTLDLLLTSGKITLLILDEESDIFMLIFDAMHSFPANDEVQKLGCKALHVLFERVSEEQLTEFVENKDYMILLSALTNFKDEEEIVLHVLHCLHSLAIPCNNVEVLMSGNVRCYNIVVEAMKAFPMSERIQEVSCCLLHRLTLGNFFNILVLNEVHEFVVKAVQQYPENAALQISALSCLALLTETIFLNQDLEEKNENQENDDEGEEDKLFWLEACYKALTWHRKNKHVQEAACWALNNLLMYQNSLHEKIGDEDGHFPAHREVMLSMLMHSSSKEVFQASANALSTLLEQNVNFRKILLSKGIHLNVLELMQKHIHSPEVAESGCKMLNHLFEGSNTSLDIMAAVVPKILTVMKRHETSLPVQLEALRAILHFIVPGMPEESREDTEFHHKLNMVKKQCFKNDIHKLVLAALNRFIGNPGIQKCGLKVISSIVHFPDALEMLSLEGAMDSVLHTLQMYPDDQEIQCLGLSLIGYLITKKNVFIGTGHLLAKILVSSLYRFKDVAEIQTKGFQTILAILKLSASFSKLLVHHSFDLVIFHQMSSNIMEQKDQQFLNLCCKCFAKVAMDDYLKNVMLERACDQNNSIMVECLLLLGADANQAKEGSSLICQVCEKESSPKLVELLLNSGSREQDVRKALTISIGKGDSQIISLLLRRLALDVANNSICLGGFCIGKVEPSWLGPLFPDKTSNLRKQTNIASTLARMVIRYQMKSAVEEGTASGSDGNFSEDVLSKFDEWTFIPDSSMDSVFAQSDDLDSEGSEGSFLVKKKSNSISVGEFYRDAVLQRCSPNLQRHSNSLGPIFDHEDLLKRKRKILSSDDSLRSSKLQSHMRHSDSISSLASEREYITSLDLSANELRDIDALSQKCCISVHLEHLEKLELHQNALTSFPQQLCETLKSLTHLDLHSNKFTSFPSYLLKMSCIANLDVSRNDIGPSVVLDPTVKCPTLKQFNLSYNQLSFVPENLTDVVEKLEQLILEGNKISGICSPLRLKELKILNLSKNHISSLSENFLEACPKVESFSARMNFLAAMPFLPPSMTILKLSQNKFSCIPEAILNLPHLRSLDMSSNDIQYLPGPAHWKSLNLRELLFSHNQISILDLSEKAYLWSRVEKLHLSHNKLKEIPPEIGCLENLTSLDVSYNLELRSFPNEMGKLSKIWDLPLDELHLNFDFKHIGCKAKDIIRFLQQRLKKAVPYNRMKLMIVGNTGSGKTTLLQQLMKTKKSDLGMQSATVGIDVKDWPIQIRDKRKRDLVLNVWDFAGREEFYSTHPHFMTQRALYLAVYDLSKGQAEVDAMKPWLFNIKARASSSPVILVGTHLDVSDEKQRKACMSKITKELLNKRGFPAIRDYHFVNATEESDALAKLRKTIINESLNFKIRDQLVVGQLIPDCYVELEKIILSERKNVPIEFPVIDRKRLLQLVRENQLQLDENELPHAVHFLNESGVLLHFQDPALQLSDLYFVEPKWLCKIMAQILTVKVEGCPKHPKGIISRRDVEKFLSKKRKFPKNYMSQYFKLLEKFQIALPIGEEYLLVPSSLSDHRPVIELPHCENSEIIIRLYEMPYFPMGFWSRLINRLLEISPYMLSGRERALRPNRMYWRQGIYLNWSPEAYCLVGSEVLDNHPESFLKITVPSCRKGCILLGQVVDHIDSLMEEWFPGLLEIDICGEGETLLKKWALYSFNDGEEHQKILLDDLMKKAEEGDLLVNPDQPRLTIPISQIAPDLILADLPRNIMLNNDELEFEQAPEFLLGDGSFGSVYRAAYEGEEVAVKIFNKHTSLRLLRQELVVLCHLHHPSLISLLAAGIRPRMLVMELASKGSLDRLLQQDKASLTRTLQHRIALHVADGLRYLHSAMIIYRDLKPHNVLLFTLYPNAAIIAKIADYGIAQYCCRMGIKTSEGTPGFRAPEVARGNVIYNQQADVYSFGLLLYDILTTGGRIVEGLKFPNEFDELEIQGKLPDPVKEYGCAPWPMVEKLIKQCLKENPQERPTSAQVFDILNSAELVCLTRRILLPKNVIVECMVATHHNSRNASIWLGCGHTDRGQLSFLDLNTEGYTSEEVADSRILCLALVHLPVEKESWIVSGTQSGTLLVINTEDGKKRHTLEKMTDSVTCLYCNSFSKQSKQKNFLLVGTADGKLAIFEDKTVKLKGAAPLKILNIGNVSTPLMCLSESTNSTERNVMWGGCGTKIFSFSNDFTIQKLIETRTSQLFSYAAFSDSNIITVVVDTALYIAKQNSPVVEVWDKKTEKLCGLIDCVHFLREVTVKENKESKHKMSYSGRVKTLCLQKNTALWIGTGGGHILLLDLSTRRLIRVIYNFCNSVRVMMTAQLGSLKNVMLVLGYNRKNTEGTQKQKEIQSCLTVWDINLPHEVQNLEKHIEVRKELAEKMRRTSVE

B1: Nb35 (CA16072) (VHH)
VHH: QVQLVESGGGLVQPGGSLRLSCAASGFPFSTYYMSWVRQAPGKGLEWVSAISPGGDTAYADSVKDRFTISRDSAKNTVYLQMSSLKPEDTAVYYCAAVRFLRAPDLTEKRLYEYWGQGTQVTVSS
With B1, the binding result in assay [1], in [2] and in assay [3] was “no binding (tested: not given)” throughout.

B2: Nb39 (CA14134) (VHH)
VHH: QVQLVESGGGLVQAGGSLRLSCRASGGTFSTYAMGWFRQVPGKERETVAAVKWSGDMTYYADSVKGRFTISRDNAKNTVYLQMNSLRPEDTAVYYCAARRGLSYYRGPSEYDYWGQGTQVTVSS
Turning to B2, the binding result in assay [4], in [5], in [6] and in assay [7] was “no binding” in each case. For the same molecule, the Kd (commonly the equilibrium constant for the complex coming apart) in [8] is 0.079 µM; in assay [9], 0.021 µM.

B3: Nb22 (CA13611) (VHH)
VHH: QVQLVESGGGLVQAGGSLRLSCAASGRTFSSYTMGWFRQAPGKEREFVAAIRWSGGSTYYADSVKGRFTISRDNAKNTVYLQMNSLKPEDTAVYYCAASDRGGFIATSGGWMDYWGKGTQVTVSS
In the case of B3, the Kd in assay [8] came to 0.145 µM; in assay [9], 0.076 µM. Further, the binding result in assay [1], in [10] and in assay [2] was “no binding (tested: not given)” each time.

B4: Nb17 (CA13606) (VHH)
VHH: QVQLVESGGGLVQPGGSLRLSCAASGSNIGYMAWYRQAPGSQRELVARIASGGSANYADSVKGRFTISRDNVKNTVYLHMNSLKPVDTAVYYCHADAWYNSRWSDYWGQGTQVTVSS
Turning to B4, the binding result in assay [4], in assay [5], in assay [6] and in [7] was “no binding” throughout. Besides, the Kd was determined as 0.067 µM in [8] and 0.011 µM in [9].

B5: Nb36 (CA14130) (VHH)
VHH: QVQLVESGGGLVQPGGSLRLSCAASGSIRSITTSAWFRQPPGKQRELVAGISSGTSTNYADSVKGRFTISRDNAKNTVYLQMNSLKPEDTAVYYCHVWISGTWYSGQGTQVTVSS
On to B5, for which the binding result in assay [4], in assay [5], in [6] and in assay [7] was “no binding” throughout. The values for the Kd in assay [8] and in [9] were 0.078 µM and 0.051 µM, respectively.

B6: Nb38 (CA14133) (VHH)
VHH: QVQLVESGGGLVQPGGSLRLSCAASGSIRSIATSAWYRQPPGKQRELVAGISSGTTTNYADSVKGRFTISRDNAKNTVYLQMNSLKPEDTAVYYCHAWISGTWISGQGTQVTVSS
For the molecule B6, the binding result in assay [4], in assay [5], in [6] and in [7] was “no binding” throughout. For the same molecule, the Kd in assay [8] was determined as 0.048 µM; in [9], 0.086 µM.

B7: Nb3 (CA12614) (VHH)
VHH: QVQLVESGGGLVQPGGSLRLSCAASGSIFRRNAMGWYRQVTGKERELVAGITSGGYTNYRDFVKGRFTISRDNAKNTVYLQMNNLKPEDTAVYYCNLLSEMLQTVWGQGTQVTVSS
Turning to B7, the binding result in assay [10] and in [3] was “no binding (tested: not given)” each time.

B8: Nb37 (CA14131) (VHH)
VHH: QVQLVESGGGLVQPGGSLRLSCAASGSVFSTNTMAWFRQAPGKQREWVGGITPGGFTNYINSVKGRFTISRDNANNTIYLQMSSLRPEDTAVYYCNTLSRMALWGQGTQVTVSS
As to B8, the binding result in assay [4], in [5], in assay [6] and in assay [7] was “no binding” in each case.

The values above are taken from patent US20230087785A1, “Leucine-Rich Repeat Kinase 2 Allosteric Modulators” (VIB VZW, priority 2020, published 2023).
